From publication PMC3458572
Where two headings read alike, the source gives them in different places.

What was measured:
Assay in all cases: immunodepletion
[1] = biological target: Xenopus laevis FANCI, extract-endogenous (Xenopus laevis (endogenous in egg extract)) (UniProt D2JYR7)
[2] = biological target: Xenopus laevis FANCD2, extract-endogenous, non-ubiquitinated (Xenopus laevis (endogenous in egg extract))
[3] = biological target: Xenopus laevis FANCD2, extract-endogenous, non-ubiquitinated (Xenopus laevis (endogenous in egg extract)); remark: listed apart in the source

Q: With “Xenopus laevis FANCD2, extract-endogenous, non-ubiquitinated (natural protein)” as the substance, how does the percent co-depleted [1] read?
A: 80%

Q: With “Xenopus laevis FANCI, extract-endogenous (from UniProt D2JYR7 1-1337) (natural protein)” as the substance, how does the percent co-depleted [2] read?
A: 80%

Q: What about the percent co-depleted [3] of the same substance?
A: 80%
